# Test results: PMC12952242 (Molecular cell, 2025)
# B1: ZNF207 1–122 (ZnF+Hel), recombinant (domain or fragment)
# chain: not shown
# B2: ZNF207 full-length, recombinant (natural protein)
# chain: not shown
# Legend:
# [1] = target: U1–70K (SNRNP70) 1–216, recombinant (human, UniProt P08621-1 1-216); test: pull-down
# [2] = target: U1 snRNP (lacking the Sm ring), reconstituted (human, UniProt P08621-1 1-216; P09012 1-282; P09234 1-159); test: pull-down
# Chain of U1 snRNP (lacking the Sm ring), reconstituted (P08621 1-216, chain 1 of 3): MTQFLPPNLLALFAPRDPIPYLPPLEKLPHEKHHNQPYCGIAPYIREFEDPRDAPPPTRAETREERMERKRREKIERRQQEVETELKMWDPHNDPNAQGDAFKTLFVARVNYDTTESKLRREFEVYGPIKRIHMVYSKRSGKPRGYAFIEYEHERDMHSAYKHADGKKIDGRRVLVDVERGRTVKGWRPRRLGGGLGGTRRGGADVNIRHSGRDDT
# Chain of U1 snRNP (lacking the Sm ring), reconstituted (P09012 whole entry, chain 2 of 3): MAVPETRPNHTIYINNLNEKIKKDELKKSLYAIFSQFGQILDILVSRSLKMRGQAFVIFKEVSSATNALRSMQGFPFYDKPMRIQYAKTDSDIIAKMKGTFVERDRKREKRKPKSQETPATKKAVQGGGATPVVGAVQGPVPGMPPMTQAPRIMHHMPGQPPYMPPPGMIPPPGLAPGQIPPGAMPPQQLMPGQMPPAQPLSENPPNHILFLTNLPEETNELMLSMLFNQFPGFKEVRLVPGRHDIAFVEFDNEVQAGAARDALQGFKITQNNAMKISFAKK
# Chain of U1 snRNP (lacking the Sm ring), reconstituted (P09234 whole entry, chain 3 of 3): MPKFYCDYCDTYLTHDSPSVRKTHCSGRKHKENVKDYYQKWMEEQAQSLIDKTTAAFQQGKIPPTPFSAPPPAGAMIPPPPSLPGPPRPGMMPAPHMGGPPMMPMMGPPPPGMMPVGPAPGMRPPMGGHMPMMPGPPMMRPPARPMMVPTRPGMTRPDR
# Chain of U1–70K (SNRNP70) 1–216, recombinant (P08621 1-216): as the sequence (P08621 1-216, chain 1 of 3) above
binder,measurement,setting,value
B1,binding result,[1],binds
same,binding result,[2],binds
B2,binding result,[2],binds
